{"source": "the Human Domainome abundance scans (Beltran et al. 2025)", "parents": {"B1": {"name": "POU domain, class 2, transcription factor 2, residues 200 to 269; numbered along this chain, P09086 (parent)", "chain": "LEELEQFARTFKQRRIKLGFTQGDVGLAMGKLYGNDFSQTTISRFEALNLSFKNMCKLKPLLEKWLNDAE"}}, "note": "± gives the uncertainty stated by the source.", "data": [{"variants_of": "B1", "test": "abundance fitness (aPCA) (normalised: wild type 0, dead -1); higher = more abundant; growth selection in yeast, the domain comes from the species named", "conditions": "Homo sapiens", "values": [{"variant": "R44F", "abundance fitness": "-0.22 ± 0.067"}, {"variant": "S43A", "abundance fitness": "0.005 ± 0.046"}, {"variant": "S43V", "abundance fitness": "-0.098 ± 0.036"}, {"variant": "S43E", "abundance fitness": "-0.018 ± 0.05"}, {"variant": "S43D", "abundance fitness": "-0.049 ± 0.078"}, {"variant": "S43K", "abundance fitness": "0.062 ± 0.085"}, {"variant": "S43G", "abundance fitness": "0 ± 0.034"}, {"variant": "S43F", "abundance fitness": "-0.227 ± 0.079"}, {"variant": "S43L", "abundance fitness": "-0.07 ± 0.036"}, {"variant": "S43N", "abundance fitness": "-0.046 ± 0.1"}, {"variant": "S43H", "abundance fitness": "-0.034 ± 0.034"}, {"variant": "S43P", "abundance fitness": "-0.002 ± 0.046"}, {"variant": "S43W", "abundance fitness": "-0.047 ± 0.045"}, {"variant": "S43I", "abundance fitness": "-0.024 ± 0.093"}, {"variant": "S43T", "abundance fitness": "-0.05 ± 0.046"}, {"variant": "S43Q", "abundance fitness": "0.095 ± 0.11"}, {"variant": "S43C", "abundance fitness": "-0.149 ± 0.083"}, {"variant": "F45T", "abundance fitness": "-0.989 ± 0.15"}, {"variant": "F45R", "abundance fitness": "-0.965 ± 0.078"}, {"variant": "F45H", "abundance fitness": "-1.04 ± 0.49"}, {"variant": "F45A", "abundance fitness": "-0.78 ± 0.095"}, {"variant": "F45M", "abundance fitness": "-0.109 ± 0.046"}, {"variant": "F45Q", "abundance fitness": "-0.977 ± 0.19"}, {"variant": "F45K", "abundance fitness": "-0.906 ± 0.12"}, {"variant": "F45Y", "abundance fitness": "-0.158 ± 0.079"}, {"variant": "F45C", "abundance fitness": "-0.752 ± 0.22"}, {"variant": "F45G", "abundance fitness": "-1.05 ± 0.15"}, {"variant": "F45E", "abundance fitness": "-1.09 ± 0.16"}, {"variant": "F45V", "abundance fitness": "-0.371 ± 0.048"}, {"variant": "F45D", "abundance fitness": "-0.916 ± 0.26"}, {"variant": "F45I", "abundance fitness": "-0.546 ± 0.17"}, {"variant": "F45W", "abundance fitness": "-0.205 ± 0.052"}, {"variant": "L50I", "abundance fitness": "-0.039 ± 0.05"}, {"variant": "L50Y", "abundance fitness": "-0.174 ± 0.066"}, {"variant": "L50T", "abundance fitness": "-0.054 ± 0.052"}, {"variant": "L50M", "abundance fitness": "-0.049 ± 0.057"}, {"variant": "L50H", "abundance fitness": "-0.089 ± 0.056"}, {"variant": "L50S", "abundance fitness": "-0.155 ± 0.036"}, {"variant": "L50G", "abundance fitness": "-0.116 ± 0.028"}, {"variant": "L50W", "abundance fitness": "-0.183 ± 0.043"}, {"variant": "L50A", "abundance fitness": "-0.103 ± 0.033"}, {"variant": "L50F", "abundance fitness": "-0.064 ± 0.065"}, {"variant": "L50P", "abundance fitness": "-0.674 ± 0.066"}, {"variant": "L50E", "abundance fitness": "0.008 ± 0.074"}, {"variant": "L50C", "abundance fitness": "-0.078 ± 0.026"}, {"variant": "L50D", "abundance fitness": "-0.089 ± 0.06"}, {"variant": "L50N", "abundance fitness": "-0.53 ± 0.1"}, {"variant": "L50R", "abundance fitness": "-0.625 ± 0.044"}, {"variant": "L50V", "abundance fitness": "-0.036 ± 0.045"}, {"variant": "L50K", "abundance fitness": "-0.658 ± 0.073"}, {"variant": "A47Y", "abundance fitness": "-0.26 ± 0.091"}, {"variant": "A47N", "abundance fitness": "-0.019 ± 0.085"}, {"variant": "A47L", "abundance fitness": "-0.032 ± 0.037"}, {"variant": "A47M", "abundance fitness": "-0.036 ± 0.065"}, {"variant": "A47P", "abundance fitness": "-0.641 ± 0.11"}, {"variant": "A47H", "abundance fitness": "-0.144 ± 0.08"}, {"variant": "A47I", "abundance fitness": "-0.037 ± 0.11"}, {"variant": "A47Q", "abundance fitness": "0.035 ± 0.058"}, {"variant": "A47D", "abundance fitness": "0.158 ± 0.083"}, {"variant": "A47T", "abundance fitness": "0.017 ± 0.05"}, {"variant": "A47W", "abundance fitness": "-0.325 ± 0.053"}, {"variant": "A47F", "abundance fitness": "-0.173 ± 0.075"}, {"variant": "A47G", "abundance fitness": "-0.002 ± 0.037"}, {"variant": "A47V", "abundance fitness": "-0.125 ± 0.041"}, {"variant": "A47E", "abundance fitness": "0.082 ± 0.044"}, {"variant": "A47K", "abundance fitness": "-0.054 ± 0.083"}, {"variant": "A47S", "abundance fitness": "0.053 ± 0.042"}, {"variant": "A47R", "abundance fitness": "-0.085 ± 0.036"}, {"variant": "I42W", "abundance fitness": "-0.818 ± 0.16"}, {"variant": "I42V", "abundance fitness": "-0.033 ± 0.037"}, {"variant": "I42Q", "abundance fitness": "-0.559 ± 0.11"}, {"variant": "I42Y", "abundance fitness": "-0.511 ± 0.21"}, {"variant": "I42S", "abundance fitness": "-0.685 ± 0.24"}, {"variant": "I42E", "abundance fitness": "-0.758 ± 0.1"}, {"variant": "I42F", "abundance fitness": "-0.375 ± 0.12"}, {"variant": "I42M", "abundance fitness": "-0.122 ± 0.059"}, {"variant": "I42H", "abundance fitness": "-1.01 ± 0.32"}, {"variant": "I42D", "abundance fitness": "-0.857 ± 0.24"}, {"variant": "I42R", "abundance fitness": "-1.11 ± 0.14"}, {"variant": "I42G", "abundance fitness": "-1.02 ± 0.12"}, {"variant": "I42P", "abundance fitness": "-0.857 ± 0.18"}, {"variant": "I42T", "abundance fitness": "-0.552 ± 0.077"}, {"variant": "I42K", "abundance fitness": "-0.979 ± 0.15"}, {"variant": "I42L", "abundance fitness": "-0.073 ± 0.038"}]}]}
